{"source": "paper PMC6954210", "proteins": {"B1": {"name": "perilipin 1 (PLIN1): OGT overexpression (protein)", "parent chain": "MSMNKGPTLLDGDLPEQENVLQRVLQLPVVSGTCECFQKTYNSTKEAHPLVASVCNAYEKGVQGASNLAAWSMEPVVRRLSTQFTAANELACRGLDHLEEKIPALQYPPEKIASELKGTISTRLRSARNSISVPIASTSDKVLGATLAGCELALGMAKETAEYAANTRVGRLASGGADLALGSIEKVVEFLLPPDKESAPSSGRQRTQKAPKAKPSLVRRVSTLANTLSRHTMQTTAWALKQGHSLAMWIPGVAPLSSLAQWGASAAMQVVSRRQSEVRVPWLHNLAASQDESHDDQTDTEGEETDDEEEEEESEAEENVLREVTALPNPRGLLGGVVHTVQNTLRNTISAVTWAPAAVLGTVGRILHLTPAQAVSSTKGRAMSLSDALKGVTDNVVDTVVHYVPLPRLSLMEPESEFRDIDNPSAEAERKGSGARPASPESTPRPGQPRGSLRSVRGLSAPSCPGLDDKTEASARPGFLAMPREKPARRVSDSFFRPSVMEPILGRAQYSQLRKKS"}, "B2": {"name": "perilipin 1 (PLIN1): OGT AKO (eWAT) (protein)", "parent chain": "B1 parent chain"}, "B3": {"name": "perilipin 1 (PLIN1): OGT knockout (protein)", "parent chain": "B1 parent chain"}, "B4": {"name": "perilipin 1 (PLIN1): OGT AKO (iWAT) (protein)", "parent chain": "B1 parent chain"}, "B5": {"name": "perilipin 1 (PLIN1): OGT AKI (adipose rOGT knockin) (protein)", "parent chain": "B1 parent chain"}, "B6": {"name": "perilipin 1 (PLIN1): OGT AKO (protein)", "parent chain": "B1 parent chain"}}, "key": {"[1]": {"assay": "IP, p517 Western blot, IBMX/Fsk stimulation", "details": "glycan gained; control: no OGT overexpression"}, "[2]": {"assay": "IP, p-Ser Western blot, IBMX/Fsk-treated HeLa", "details": "glycan gained; control: no OGT overexpression"}, "[3]": {"assay": "p517 Western blot, fat of 6 h fasted mice", "details": "glycan lost; control: WT mice"}, "[4]": {"assay": "p492/p517 immunofluorescence, IBMX/Fsk-treated primary eWAT adipocytes", "details": "glycan lost; control: WT adipocytes"}, "[5]": {"assay": "IP of endogenous PLIN1, p517 Western blot", "details": "glycan gained; control: WT mice"}, "[6]": {"assay": "Western blot of PLIN1 in iWAT", "details": "glycan lost; control: WT mice"}}}
{"protein": "B1", "values": [{"measurement": "other: PLIN1 phosphorylation", "setting": "[1]", "result": "abolishes"}, {"measurement": "other: PLIN1 phosphorylation", "setting": "[2]", "result": "decreases"}]}
{"protein": "B2", "values": [{"measurement": "other: PLIN1 phosphorylation", "setting": "[3]", "result": "increases"}]}
{"protein": "B3", "values": [{"measurement": "other: PLIN1 phosphorylation", "setting": "[4]", "result": "increases"}]}
{"protein": "B4", "values": [{"measurement": "other: PLIN1 phosphorylation", "setting": "[3]", "result": "no change"}]}
{"protein": "B5", "values": [{"measurement": "other: PLIN1 phosphorylation", "setting": "[5]", "result": "decreases"}]}
{"protein": "B6", "values": [{"measurement": "expression_or_secretion", "setting": "[6]", "result": "no change"}]}
